Measured values from the supplement of paper PMC10567573.

B1: MFF (parent)
chain: DDLTVVDAASLRRQIIKLNRRLQL
B2: TRIM63 (parent)
chain: QEKKLSFIEALIQQYQEQLDKSTK

Variants of: B1
Experiment: protein stability index of a GFP-peptide fusion (GPS, HEK-293T) (PSI 1-6); higher = more stable
Details: c terminus: a fixed tail appended
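Further: lentivirally expressed fusions sorted by FACS into six bins by GFP to DsRed ratio, PSI derived from sequencing read proportions per bin multiplied by bin number.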

Protein stability index: each site, then its substitutions
T4: Q 2.32 | M 2.24 | I 2.2 | F 2.08 | P 1.56 | E 2.21 | C 1.86 | R 2.18 | V 1.96 | N 2.3 | L 2.62 | Y 1.43 | K 2.15 | H 1.7 | A 1.91 | D 2.6 | S 2.43
R12: V 2.06 | Y 1.9 | A 2.07 | Q 2.13 | T 1.73 | M 1.64 | P 2.51 | W 1.92 | D 2.5 | G 1.85 | S 2.1 | K 2.01 | F 1.99 | L 1.67 | N 2.42 | I 1.23 | H 2.58 | C 1.95
I16: F 3.4 | A 2.48 | Y 2.97 | E 1.88 | R 3.58 | S 1.52 | M 1.67 | D 2.85 | Q 1.98 | C 1.69 | P 3.66 | N 2.8 | L 2.19 | H 2.26 | G 1.64 | T 1.92
L3: M 3.06 | D 2.58 | F 2.73 | C 2.33 | A 2.59 | K 2.34 | H 2.73 | Q 2.45 | S 2.57 | V 2.8 | G 2.58 | E 2.56 | I 1.8 | R 2.58 | W 1.48 | Y 1.96 | N 2.09 | T 2.2 | P 2.48
D1: E 1.67 | N 2.1 | S 2.28 | K 1.84 | Y 2.81 | G 2.17 | I 2.32 | P 2.05 | L 1.61 | V 2.39 | C 2.04 | M 1.98 | Q 3.2 | T 1.78 | H 1.84 | F 2.42 | W 1.88 | R 2.45 | A 2.08
I15: D 3.96 | W 2.34 | G 3 | R 3.71 | L 2.23 | F 2 | P 4.26 | T 2.94 | K 3.5 | Y 2.57 | S 3.74 | V 3.05 | E 3.83 | N 2.71 | Q 3.66 | A 2.43 | M 1.87
V5: F 1.72 | T 2.69 | I 2.66 | L 1.69 | M 2.05 | P 2.42 | E 2.38 | A 2.44 | N 2.61 | Y 2.17 | D 2.37 | Q 2.26 | R 1.7 | S 2.5 | K 2.47 | H 2.69 | C 1.72 | W 1.93
S10: N 2.28 | P 2.89 | D 2.05 | C 1.48 | F 2.32 | R 2.83 | E 2.13 | L 1.24 | I 1.72 | Y 1.69 | Q 2.28 | V 1.64 | G 2.3 | M 1.42 | W 3.84 | K 1.79 | A 1.7 | H 2.02 | T 1.61
K17: R 2.24 | I 1.85 | H 2.08 | A 1.01 | Q 1.57 | L 2.37 | D 1.85 | W 1.74 | P 3.72 | T 2.47 | G 1.99 | S 2.76 | N 2.2 | C 2.44 | Y 1.89 | V 1.66
L11: C 2.16 | I 2.72 | K 3.28 | F 2.48 | E 3.7 | P 3.33 | R 3.91 | V 3.05 | W 2.84 | D 3.79 | Q 3.24 | G 3.84 | T 3.39 | M 2.51 | A 2.33 | S 3.73 | N 2.59 | H 3.19 | Y 2.82
V6: I 1.55 | F 2.29 | T 2.34 | K 2.35 | A 2.91 | H 2.71 | R 2.91 | Y 1.77 | P 4.09 | C 2.41 | G 3.34 | S 1.64 | M 1.99 | N 2.4 | Q 1.9 | E 2.08 | D 2.3 | L 2.37 | W 2.4
A9: Q 2.22 | D 2.02 | W 1.84 | K 2.31 | E 2.13 | S 2.2 | C 2.03 | M 1.84 | F 1.58 | Y 2.48 | L 2.08 | R 4.18 | H 2.52 | P 2.12 | I 2.79 | N 2.42 | T 1.82 | G 2.11
Q14: G 2.5 | R 2.58 | L 2.45 | H 1.57 | C 2.27 | M 1.04 | Y 1.54 | A 1.82 | F 1.51 | T 3.2 | D 2.16 | E 1.78 | S 2.11 | P 3.56 | I 2.3 | N 2.31 | K 2.23
D7: Y 1.61 | T 1.64 | A 2.29 | S 2.24 | C 1.4 | Q 2.17 | G 2.71 | R 2.93 | H 3.12 | M 2.19 | P 2.71 | K 1.89 | N 1.89 | E 2.04 | F 1.85 | W 1.92
R13: S 2.39 | P 2.56 | V 2.55 | K 2.17 | A 2.88 | Y 1.7 | T 1.85 | F 1.69 | C 2.22 | N 2.21 | D 2.27 | I 1.41 | H 1.95 | Q 2.06 | G 2.14 | M 2.54 | L 2.56 | E 2.42
A8: Q 2.38 | K 3.29 | V 1.9 | P 2.42 | N 2.63 | E 2.63 | W 2.17 | R 2.57 | L 2.58 | T 1.69 | D 2.8 | G 3.13 | M 3.09 | C 1.93 | I 1.61 | H 1.95 | F 2.35 | S 2.49 | Y 1.3
L18: H 3 | C 1.62 | G 2.48 | M 2.38 | F 3.41 | N 3.39 | T 2.89 | R 3.73 | W 1.84 | K 3.31 | V 1.95 | D 4.13 | S 3.04 | Y 3.26 | A 1.86 | I 3.42 | P 3.42
D2: E 1.72 | Q 2.32 | C 2.73 | G 2.56 | W 2.86 | R 1.82 | S 2.24 | N 2.22 | M 2.09 | T 2.31 | P 2.45 | A 2.37 | F 2.48 | L 1.24 | V 1.13 | H 2.02 | Y 2 | I 1.85 | K 2.3

Variants of: B2
Experiment: as above
Details: c terminus: a fixed tail appended

Protein stability index of substitutions, site by site:
D20: T 2.47
T23: H 2.53
Q1: K 2.34
K4: W 1.85
Q14: R 2.2
E9: R 2.82
S22: R 1.98
S6: L 2.2 | E 2.86
A10: M 1.96
L11: N 4.78
L19: M 3.18
E17: V 1.75
